Experimental data taken from PMC11834443, “Allosteric regulation of pyruvate kinase enables efficient and robust gluconeogenesis by preventing metabolic conflicts and carbon overflow” (mSystems, 2025).
One block for each molecule: values may come before it.

What was measured:
[1] = target: T1, wild-type full length pyruvate kinase (WT Pyk) (Bacillus subtilis, UniProt P80885); type: biochemical
[2] = target: T1, wild-type full length pyruvate kinase (WT Pyk); assay: LDH-coupled assay, fit to nonessential activation equation; type: biochemical
[3] = target: T1, wild-type full length pyruvate kinase (WT Pyk); assay: LDH-coupled assay, NADH absorbance at […] nm; type: biochemical
purified protein = substrate: Nc1ncnc2c1ncn2[C@@H]1O[C@H](COP(=O)(O)OP(=O)(O)O)[C@@H](O)[C@H]1O; assay: purified protein; conditions: pH 7.5
[4] = target: the molecule itself; assay: SEC; 100 µL of 100 µM protein on Superdex200 26/60; 20 mM Tris-Cl pH 7.5, 300 mM NaCl, 1 mM EDTA, 1 mM DTT, 10% glycerol; 3 mL/min, 4°C; mass from a standard curve of partition coefficients

Molecule: Nc1ncnc2c1ncn2[C@@H]1O[C@H](COP(=O)(O)O)[C@@H](O)[C@H]1O [AMP]
LDH-coupled assay, NADH absorbance at 340 nm [1]: wild-type B. subtilis pyruvate kinase was activated by AMP or R5P (Fig. S3a)

Kd [2]: 570 ± 40 µM
Molecule: O=P(O)(O)OC[C@H]1OC(O)[C@H](O)[C@@H]1O (stereo partly shown) [R5P]

Ki [3]: 520 ± 50 µM
Molecule: Nc1ncnc2c1ncn2[C@@H]1O[C@H](COP(=O)(O)OP(=O)(O)OP(=O)(O)O)[C@@H](O)[C@H]1O [ATP]

B1: Bacillus subtilis pyruvate kinase, wild-type full length (enzyme, B. subtilis, UniProt P80885 1-585, looked up)
chain: MRKTKIVCTIGPASESIEMLTKLMESGMNVARLNFSHGDFEEHGARIKNIREASKKLGKNVGILLDTKGPEIRTHTMENGGIELETGKELIISMDEVVGTTDKISVTYEGLVHDVEQGSTILLDDGLIGLEVLDVDAAKREIKTKVLNNGTLKNKKGVNVPGVSVNLPGITEKDARDIVFGIEQGVDFIAPSFIRRSTDVLEIRELLEEHNAQDIQIIPKIENQEGVDNIDAILEVSDGLMVARGDLGVEIPAEEVPLVQKELIKKCNALGKPVITATQMLDSMQRNPRPTRAEASDVANAIFDGTDAIMLSGETAAGSYPVEAVQTMHNIASRSEEALNYKEILSKRRDQVGMTITDAIGQSVAHTAINLNAAAIVTPTESGHTARMIAKYRPQAPIVAVTVNDSISRKLALVSGVFAESGQNASSTDEMLEDAVQKSLNSGIVKHGDLIVITAGTVGESGTTNLMKVHTVGDIIAKGQGIGRKSAYGPVVVAQNAKEAEQKMTDGAVLVTKSTDRDMIASLEKASALITEEGGLTSHAAVVGLSLGIPVIVGLENATSILTDGQDITVDASRGAVYQGRASVL
notes: This looks larger than the untagged protein, although the methods say the His tag was removed with TEV protease; also called WT Pyk; WT; source: E. coli BL21 (DE3), purified (HisTrap FF, TEV digestion, size-exclusion chromatography); not shown: His6, N-terminal, cleaved
Km (purified protein): 1010 ± 30 µM
stoichiometry N [4]: 4

B2: Bacillus subtilis pyruvate kinase lacking the extra C-terminal domain (residues 1-474) (domain or fragment, B. subtilis, UniProt P80885 1-474, looked up)
chain: MRKTKIVCTIGPASESIEMLTKLMESGMNVARLNFSHGDFEEHGARIKNIREASKKLGKNVGILLDTKGPEIRTHTMENGGIELETGKELIISMDEVVGTTDKISVTYEGLVHDVEQGSTILLDDGLIGLEVLDVDAAKREIKTKVLNNGTLKNKKGVNVPGVSVNLPGITEKDARDIVFGIEQGVDFIAPSFIRRSTDVLEIRELLEEHNAQDIQIIPKIENQEGVDNIDAILEVSDGLMVARGDLGVEIPAEEVPLVQKELIKKCNALGKPVITATQMLDSMQRNPRPTRAEASDVANAIFDGTDAIMLSGETAAGSYPVEAVQTMHNIASRSEEALNYKEILSKRRDQVGMTITDAIGQSVAHTAINLNAAAIVTPTESGHTARMIAKYRPQAPIVAVTVNDSISRKLALVSGVFAESGQNASSTDEMLEDAVQKSLNSGIVKHGDLIVITAGTVGESGTTNLMKVHTVGD
notes: pyruvate kinase (Pyk) of Bacillus subtilis, N-terminal residues 1-474, without the extra C-terminal domain (ECTD); in pLIC-trPC-HA (plasmid pJW724); This looks larger than untagged residues 1-474, although the methods say the His tag was removed with TEV protease; also called PykΔECTD; ΔECTD pyruvate kinase; source: E. coli BL21 (DE3), purified (HisTrap FF, TEV digestion, size-exclusion …)
Km (purified protein): 1830 ± 240 µM
stoichiometry N [4]: 4
